Non-standard residues stand in square brackets, D forms with d. No end group written: not given here. Gly(cPent) = N[C@H](C(=O)O)C1CCCC1; Hyp = O=C(O)[C@@H]1C[C@@H](O)CN1; dTic = O=C(O)[C@H]1Cc2ccccc2CN1
T1: human bradykinin B1 receptor (human, UniProt P46663 1-353)
T1 sequence (looked up): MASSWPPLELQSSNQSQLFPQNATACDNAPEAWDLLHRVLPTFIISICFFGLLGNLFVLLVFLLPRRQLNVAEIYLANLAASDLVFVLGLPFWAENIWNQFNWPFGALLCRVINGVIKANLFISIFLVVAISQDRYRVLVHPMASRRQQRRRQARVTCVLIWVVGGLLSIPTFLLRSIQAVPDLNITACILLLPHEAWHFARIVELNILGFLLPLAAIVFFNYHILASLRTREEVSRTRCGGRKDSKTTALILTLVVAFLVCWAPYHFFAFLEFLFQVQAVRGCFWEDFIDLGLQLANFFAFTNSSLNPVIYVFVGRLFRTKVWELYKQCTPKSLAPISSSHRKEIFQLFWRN

T2: human bradykinin B2 receptor (human, UniProt P30411 1-391)
T2 sequence (looked up): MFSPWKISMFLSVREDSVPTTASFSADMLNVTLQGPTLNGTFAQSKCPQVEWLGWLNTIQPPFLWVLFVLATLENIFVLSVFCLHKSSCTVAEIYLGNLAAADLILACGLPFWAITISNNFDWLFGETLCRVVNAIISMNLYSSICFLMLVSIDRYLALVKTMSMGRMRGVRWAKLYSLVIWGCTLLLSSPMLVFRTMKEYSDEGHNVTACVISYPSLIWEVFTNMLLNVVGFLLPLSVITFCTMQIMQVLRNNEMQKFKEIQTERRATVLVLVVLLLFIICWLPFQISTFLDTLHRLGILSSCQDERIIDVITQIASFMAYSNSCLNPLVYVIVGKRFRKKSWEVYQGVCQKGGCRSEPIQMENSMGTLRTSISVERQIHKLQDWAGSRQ


Assays:
[1] = molecular target: T1, human bradykinin B1 receptor; assay: cell-based or functional assay
[2] = molecular target: T2, human bradykinin B2 receptor; assay: cell-based or functional assay
[3] = molecular target: T1, human bradykinin B1 receptor; assay: cell-based or functional assay; remark: listed apart in the source
[4] = molecular target: T1, human bradykinin B1 receptor; assay: binding affinity (Ki) at the human B1 receptor; assay format not described

| IC50 in the hB1 aequorin assay [1] | antagonist activity in the hB2 FLIPR assay [2] | fold increase in IC50 in the hB1 aequorin assay against the unconjugated peptide [1] | hB1 IC50 (nM), functional potency [3] | Ki [4] | Binder |
| --- | --- | --- | --- | --- | --- |
| 3 nM | > 10 µM | – | – | – | KKRP[Hyp]G[Gly(cPent)]S[dTic][Gly(cPent)] [SEQ ID NO:36] |
| – | > 10 µM | ~10 fold | – | – | KKRP[Hyp]G[Gly(cPent)]S[dTic][Gly(cPent)] (also: conjugated to PEG, size, linker and site not given here) [the same peptide (SEQ ID NO:36) conjugated to PEG] |
| – | > 10 µM | – | 1 nM | 0.8 nM | Ac-KKRP[Hyp]G[Gly(cPent)]S[dTic][Gly(cPent)] [SEQ ID NO: 37] |

— US20050215470A1 (Amgen, published 2005)
